Drawing on patent US20210340217A1, “NOVEL PEPTIDES AND COMBINATION OF PEPTIDES FOR USE IN IMMUNOTHERAPY AGAINST OVARIAN CANCER AND OTHER CANCERS” (Immatics Biotechnologies GmbH, priority 2017, published 2021), this text covers Peptide exchange for 54 substances.

For the first assay, the target named is HLA-A*02:01 (Homo sapiens, UniProt P04439, D140Y/D185E/D98H/E176V/E277Q/G131W/G231S/I119V/I121R/I166T/I218V/L300P/L318F/N151K/N90K/P208A/P217A/Q86G/Q94H/R138H/R169H/T345S). Description: MHC binding assay (UV-ligand exchange, beta2m ELISA). The note with it: peptide exchange yield. In outline: (§1)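 Peptide–MHC complexes formed by UV-induced exchange of a UV-cleavable peptide for the test peptide. Exchange yield measured by streptavidin-capture ELISA detecting β2m (HRP anti-β2m, TMB, A450) on 100-fold diluted samples. Quantified against refolded HLA-A*02:01/MLA-001 standards (15-500 ng/ml).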
A general note: An ELISA detects its analyte on a solid surface through an enzyme-linked reagent.
Regarding “9 (VLLAGFKPPL; listed as Homo sapiens) [compound 9]”, the Peptide exchange result is on record as “+ (>10% = +)”.

Consider “217 (VSSSLTLKV; listed as Homo sapiens) [compound 217]”, for which the Peptide exchange entry is recorded as “+ (>10% = +)”.

Take “2 (TLLKALLEI; listed as Homo sapiens) [compound 2]”: the Peptide exchange result is “++++ (>75% = ++++)”.

On to “67 (SLLLPSIFL; listed as Homo sapiens) [compound 67]”, for which the Peptide exchange result is reported as “++++ (>75% = ++++)”.

In the case of “228 (RLWDWVPLA; listed as Homo sapiens) [compound 228]”, the Peptide exchange result was “++++ (>75% = ++++)”.

For the substance “222 (ALMRLIGCPL; listed as Homo sapiens) [compound 222]”, the Peptide exchange result is listed as “++++ (>75% = ++++)”.

In the case of “60 (GLLSLTSTLYL; listed as Homo sapiens) [compound 60]”, the Peptide exchange entry is given as “++++ (>75% = ++++)”.

Consider “225 (SVFAHPRKL; listed as Homo sapiens) [compound 225]”, for which the Peptide exchange entry was “+++ (>50 = +++)”.

For “71 (YLEDTDRNL; listed as Homo sapiens) [compound 71]”, the Peptide exchange result is given as “++++ (>75% = ++++)”.

As for “221 (SLLDLYQL; listed as Homo sapiens) [compound 221]”, the Peptide exchange result is reported as “++ (>20% = ++)”.

For the substance “70 (VLQGLLRSL; listed as Homo sapiens) [compound 70]”, the Peptide exchange entry was “++++ (>75% = ++++)”.

With “73 (FLIEELLFA; listed as Homo sapiens) [compound 73]”, the Peptide exchange entry is “++++ (>75% = ++++)”.

Turning to “8 (YLVTKVVAV; listed as Homo sapiens) [compound 8]”, the Peptide exchange result is on record as “++++ (>75% = ++++)”.

In the case of “234 (GVATRVDAI; listed as Homo sapiens) [compound 234]”, the Peptide exchange result is on record as “++ (>20% = ++)”.

Take “5 (RLLDFINVL; listed as Homo sapiens) [compound 5]”: the Peptide exchange entry is “++++ (>75% = ++++)”.

For the substance “216 (IMFDDAIERA; listed as Homo sapiens) [compound 216]”, the Peptide exchange entry is “++++ (>75% = ++++)”.

A further assay deals with HLA-A*03:01 (Homo sapiens, UniProt P04439). The assay is described as above. The note with it: peptide exchange yield. In outline:
as §1
In the case of “281 (RAKELEATF; listed as Homo sapiens) [compound 281]”, the Peptide exchange result is “+ (>10% = +)”.

Consider “27 (VLYGPAGLGK; listed as Homo sapiens) [compound 27]”, for which the Peptide exchange entry is “+++ (>50 = +++)”.

For the substance “105 (RLFSWLVNR; listed as Homo sapiens) [compound 105]”, the Peptide exchange entry is reported as “+++ (>50 = +++)”.

As to “100 (RLFTSPIMTK; listed as Homo sapiens) [compound 100]”, the Peptide exchange result is reported as “+++ (>50 = +++)”.

Turning to “259 (KTLELRVAY; listed as Homo sapiens) [compound 259]”, the Peptide exchange result is given as “++ (>20% = ++)”.

For “287 (RRIHTGEKPYK; listed as Homo sapiens) [compound 287]”, the Peptide exchange entry is given as “++ (>20% = ++)”.

Regarding “285 (GTVNPTVGK; listed as Homo sapiens) [compound 285]”, the Peptide exchange result was “++ (>20% = ++)”.

In the case of “84 (KLQPAQTAAK; listed as Homo sapiens) [compound 84]”, the Peptide exchange entry was “++ (>20% = ++)”.

For “95 (QSMYYPLQLK; listed as Homo sapiens) [compound 95]”, the Peptide exchange result is given as “++ (>20% = ++)”.

Take “275 (STTFPTLTK; listed as Homo sapiens) [compound 275]”: the Peptide exchange result is “++ (>20% = ++)”.

Take “107 (RLQEWKALK; listed as Homo sapiens) [compound 107]”: the Peptide exchange entry was “+++ (>50 = +++)”.

Take “272 (RQPERTILRPR; listed as Homo sapiens) [compound 272]”: the Peptide exchange entry was “++ (>20% = ++)”.

“256 (RTEEVLLTFK; listed as Homo sapiens) [compound 256]”: the Peptide exchange entry is reported as “++ (>20% = ++)”.

Consider “267 (VTDLISPRK; listed as Homo sapiens) [compound 267]”, for which the Peptide exchange result is on record as “++ (>20% = ++)”.

“25 (GTSPPSVEK; listed as Homo sapiens) [compound 25]”: the Peptide exchange entry is recorded as “++ (>20% = ++)”.

“102 (SVLTSSLVK; listed as Homo sapiens) [compound 102]”: the Peptide exchange result is given as “++ (>20% = ++)”.

Take “262 (RSRLNPLVQR; listed as Homo sapiens) [compound 262]”: the Peptide exchange entry is reported as “++ (>20% = ++)”.

Regarding “98 (LLQPPPLLAR; listed as Homo sapiens) [compound 98]”, the Peptide exchange result was “++ (>20% = ++)”.

Turning to “274 (KTFPASTVF; listed as Homo sapiens) [compound 274]”, the Peptide exchange entry was “+ (>10% = +)”.

Take “89 (RVAELLLLH; listed as Homo sapiens) [compound 89]”: the Peptide exchange entry was “++ (>20% = ++)”.

For “286 (TVAPPQGVVK; listed as Homo sapiens) [compound 286]”, the Peptide exchange result is reported as “++ (>20% = ++)”.

On to “269 (RLKGDAWVYK; listed as Homo sapiens) [compound 269]”, for which the Peptide exchange result is on record as “+++ (>50 = +++)”.

Take “110 (SAAPPSYFR; listed as Homo sapiens) [compound 110]”: the Peptide exchange result is “++ (>20% = ++)”.

In the case of “87 (AVAPPTPASK; listed as Homo sapiens) [compound 87]”, the Peptide exchange result is listed as “++ (>20% = ++)”.

Take “24 (SMYYPLQLK; listed as Homo sapiens) [compound 24]”: the Peptide exchange result is “+++ (>50 = +++)”.

“101 (RVFTSSIKTK; listed as Homo sapiens) [compound 101]”: the Peptide exchange entry is “++ (>20% = ++)”.

Turning to “22 (SLKERNPLK; listed as Homo sapiens) [compound 22]”, the Peptide exchange result is on record as “++ (>20% = ++)”.

Regarding “261 (HTFGLFYQR; listed as Homo sapiens) [compound 261]”, the Peptide exchange entry is reported as “++ (>20% = ++)”.

For “278 (NLSSITHER; listed as Homo sapiens) [compound 278]”, the Peptide exchange entry is listed as “++ (>20% = ++)”.

Take “283 (IVQEPTEEK; listed as Homo sapiens) [compound 283]”: the Peptide exchange result is given as “++ (>20% = ++)”.

Take “28 (KTYETNLEIKK; listed as Homo sapiens) [compound 28]”: the Peptide exchange entry is listed as “+++ (>50 = +++)”.

Turning to “99 (KVVDRWNEK; listed as Homo sapiens) [compound 99]”, the Peptide exchange entry was “++ (>20% = ++)”.

For the substance “276 (VSKTTGMEF; listed as Homo sapiens) [compound 276]”, the Peptide exchange result is listed as “+ (>10% = +)”.

Consider “86 (VVLLGSLFSRK; listed as Homo sapiens) [compound 86]”, for which the Peptide exchange entry was “++ (>20% = ++)”.

Regarding “260 (GTNTVILEY; listed as Homo sapiens) [compound 260]”, the Peptide exchange entry was “+++ (>50 = +++)”.

Take “90 (KVAGERYVYK; listed as Homo sapiens) [compound 90]”: the Peptide exchange result is reported as “+++ (>50 = +++)”.

On to “93 (KILEEHTNK; listed as Homo sapiens) [compound 93]”, for which the Peptide exchange entry is listed as “++ (>20% = ++)”.

For “94 (ATFERVLLR; listed as Homo sapiens) [compound 94]”, the Peptide exchange result is recorded as “+++ (>50 = +++)”.
